Data as given in patent publication US20230025280A1, “PH RESPONSIVE COMPOSITIONS, FORMULATIONS, AND METHODS OF IMAGING A TUMOR” (ONCONANO MEDICINE, INC, priority 2019, published 2023).
Several values for one entry are separate records, joined by “and”; a condition that tells them apart may be missing. Identical values can stand only once.

Experiment: Phase 1 (1a/1b) pharmacokinetics: plasma concentrations after single IV dose (validated direct fluorescence reader assay), noncompartmental analysis
Type: in vivo, human
Conditions: Phase 1a
From the text: Phase 1 is a single-Principal Investigator, non-randomized, open-label, single-arm, cross-sectional study to evaluate the safety, PK profile, and imaging feasibility of Compound 1 in patients with solid cancers who require surgical excision. The main purpose of this study was to investigate the safety, PK, and feasibility of Compound 1 as an intra-operative optical imaging agent to detect tumors and metastatic lymph nodes in solid cancers. The study was intended to investigate the optimal dose range of Compound 1 for an adequate TBR and CNR of fluorescence obtained intraoperatively at 24 (±8) hours post dosing and with ex vivo specimens using ICG compatible cameras and imaging devices.
Phase 1 enrolled 30 patients with solid cancers (HNSCC, breast cancer, esophageal cancer, or colorectal cancer) who have a biopsy-confirmed diagnosis of respective tumor types and are scheduled to undergo surgical resection of the tumor. The study design included a standard 3+3 design for the dose-escalation portion (Phase 1a; N=18 maximum) followed by a dose-expansion portion (Phase 1b; N=15). All patients received a single I.V. dose of Compound 1, followed by routine surgery approximately 24 hours after infusion of Compound 1.
Phase 1a was a dose-finding study performed in 5 cohorts of 3 patients each. The dose levels evaluated were […], and 1.2 mg/kg, in this sequence. Inter-cohort dose escalation took place after the last patient in the previous cohort completed the Day 10 safety assessment. Safety, PK, and imaging feasibility were evaluated in both the Phase 1a and 1b portions of the study. Patient safety is assessed during the study and for up to 10 days post-dose.
Study design: Single Compound 1 IV dose was administered as a 1-5 minute IV infusion to patients in five cohorts (0.1, 0.3, 0.5, 0.8, and 1.2 mg/kg) with three patients per cohort in Phase 1a and 15 patients at a dose of 1.2 mg/kg in Phase 1b. Patient demographic information including tumor types is presented in Table 4 and 5 for Phase 1a and Table 5 for Phase 1b. Intertek Pharmaceutical Services (San Diego, Calif.) determined Compound 1 plasma concentrations using a validated direct fluorescence reader assay. Pacific BioDevelopment (Davis, Calif.) performed the PK analysis.
Sample collection: Blood samples were collected prior to infusion and at 10 minutes and 0.5, 1, 3, 8, 24, 48, 72, and 240 hours after infusion.
Analysis: Plasma concentration versus time profiles were generated for each patient. Pharmacokinetic parameters were estimated using Phoenix WinNonlin (version 8.0). According to SOP, concentrations reported as BQL were set to 0 except for the 0.5 h sample for subject #ON1102, which was set to LLOQ/2 ([…] value used in parameter calculations) and the 24 and 48 h samples.
If the coefficient of determination for the terminal slope estimation was less than 0.8, T1/2 was not reported (NR). AUC extrapolated to infinity is not reported for any data set because in all cases the % extrapolated AUC was greater than 20% and thus the AUCinf estimate would not be reliable. The concentration at 10 minutes, the first time point measured (C10m), was also reported for each patient.
The area under the plasma concentration versus time curves from dosing to the last time point with a measurable concentration (AUClast) was estimated by the linear trapezoid method. The last three or more time points were used to estimate the elimination rate constant (λz) which was used to estimate the terminal-phase half-life (T1/2) and AUC from zero to infinity (AUCINF) from the following equations: […]

[1] = 0.5 mg/kg single IV, individual subject
[2] = 0.8 mg/kg single IV, individual subject
[3] = 1.2 mg/kg single IV, individual subject

PEO90-140-b-P(DBA60-150-r-ICG0-3-r-AMA0-3) [Compound 1]
Cmax [1]: 22700 ng/mL and 17100 ng/mL and 14000 ng/mL
Tmax [1]: 3.00 h and 0.500 h
AUC0-24 hr (0.5 mg/kg single IV, mean): 289 µg·h/mL
AUCall (0.5 mg/kg single IV, mean): 835 µg·h/mL
AUClast (0.5 mg/kg single IV, mean): 410 µg·h/mL
C10 m (0.5 mg/kg single IV, mean): 17.3 µg/mL
Cmax (0.5 mg/kg single IV, mean): 17900 ng/mL
Tmax (0.5 mg/kg single IV, mean): 2.17 h
AUC0-24 hr (0.5 mg/kg single IV, median): 314 µg·h/mL
AUCall (0.5 mg/kg single IV, median): 314 µg·h/mL
AUClast (0.5 mg/kg single IV, median): 160 µg·h/mL
C10 m (0.5 mg/kg single IV, median): 16.2 µg/mL
Cmax (0.5 mg/kg single IV, median): 17100 ng/mL
Tmax (0.5 mg/kg single IV, median): 3.00 h
Plasma Conc (0.500 mg/kg, 0.170 hr, individual subject): 22.0 µg/mL and 16.2 µg/mL and 13.6 µg/mL
Plasma Conc (0.500 mg/kg, 0.170 hr, mean): 17.3 µg/mL
Plasma Conc (0.500 mg/kg, 0.500 hr, individual subject): 16.7 µg/mL and 15.9 µg/mL and 14.0 µg/mL
Plasma Conc (0.500 mg/kg, 0.500 hr, mean): 15.5 µg/mL
Plasma Conc (0.500 mg/kg, 1.00 hr, individual subject): 15.8 µg/mL and 13.8 µg/mL and 12.6 µg/mL
Plasma Conc (0.500 mg/kg, 1.00 hr, mean): 14.1 µg/mL
Plasma Conc (0.500 mg/kg, 3.00 hr, individual subject): 22.7 µg/mL and 17.1 µg/mL and 11.9 µg/mL
Plasma Conc (0.500 mg/kg, 3.00 hr, mean): 17.2 µg/mL
Plasma Conc (0.500 mg/kg, 8.00 hr, individual subject): 19.3 µg/mL and 14.6 µg/mL and 13.9 µg/mL
Plasma Conc (0.500 mg/kg, 8.00 hr, mean): 15.9 µg/mL
Plasma Conc (0.500 mg/kg, 24.0 hr, individual subject): BQL (BQL (<10 μg/mL), set = 0 for PK analysis) (2×) and 12.4 μg/mL
Plasma Conc (0.500 mg/kg, 24.0 hr, mean): 4.13 µg/mL
Plasma Conc (0.500 mg/kg, 48.0 hr, individual subject): BQL (BQL (<10 μg/mL), set = 0 for PK analysis) (2×) and 14.0 μg/mL
Plasma Conc (0.500 mg/kg, 48.0 hr, mean): 4.67 µg/mL
Plasma Conc (0.500 mg/kg, 72.0 hr, individual subject): BQL (BQL (<10 μg/mL), set = 0 for PK analysis) (2×) and 12.0 μg/mL
Plasma Conc (0.500 mg/kg, 72.0 hr, mean): 4.00 µg/mL
Plasma Conc (0.500 mg/kg, 240 hr, individual subject): BQL (BQL (<10 μg/mL), set = 0 for PK analysis)
Plasma Conc (0.500 mg/kg, 240 hr, mean): 0.00 µg/mL
Mean AUC0-24h (0.8 mg/kg): 383 µg·h/mL
Mean C10 (0.8 mg/kg): 19.8 µg/mL
Mean terminal-phase half-life (0.8 mg/kg): 79.0 h
AUC0-24 hr [2]: 416 µg·h/mL and 354 µg·h/mL and 380 µg·h/mL
AUCall [2]: 905 µg·h/mL and 518 µg·h/mL and 1790 µg·h/mL
AUClast [2]: 756 µg·h/mL and 354 µg·h/mL and 927 µg·h/mL
C10 m [2]: 21.7 µg/mL and 19.6 µg/mL and 18.2 µg/mL
Cmax [2]: 23000 ng/mL and 19600 ng/mL and 18200 ng/mL
T1/2 [2]: 74.5 h and 83.4 h
Tmax [2]: 1.00 h and 0.170 h
AUC0-24 hr (0.8 mg/kg single IV, mean): 383 µg·h/mL
AUCall (0.8 mg/kg single IV, mean): 1070 µg·h/mL
AUClast (0.8 mg/kg single IV, mean): 679 µg·h/mL
C10 m (0.8 mg/kg single IV, mean): 19.8 µg/mL
Cmax (0.8 mg/kg single IV, mean): 20300 ng/mL
T1/2 (0.8 mg/kg single IV, mean): 79.0 h
Tmax (0.8 mg/kg single IV, mean): 0.447 h
AUC0-24 hr (0.8 mg/kg single IV, median): 380 µg·h/mL
AUCall (0.8 mg/kg single IV, median): 905 µg·h/mL
AUClast (0.8 mg/kg single IV, median): 756 µg·h/mL
C10 m (0.8 mg/kg single IV, median): 19.6 µg/mL
Cmax (0.8 mg/kg single IV, median): 19600 ng/mL
T1/2 (0.8 mg/kg single IV, median): 79.0 h
Tmax (0.8 mg/kg single IV, median): 0.170 h
Plasma Conc (0.800 mg/kg, 0.170 hr, individual subject): 21.7 µg/mL and 19.6 µg/mL and 18.2 µg/mL
Plasma Conc (0.800 mg/kg, 0.170 hr, mean): 19.8 µg/mL
Plasma Conc (0.800 mg/kg, 0.500 hr, individual subject): 19.3 µg/mL and 17.6 µg/mL and 17.1 µg/mL
Plasma Conc (0.800 mg/kg, 0.500 hr, mean): 18.0 µg/mL
Plasma Conc (0.800 mg/kg, 1.00 hr, individual subject): 23.0 µg/mL and 18.2 µg/mL and 18.0 µg/mL
Plasma Conc (0.800 mg/kg, 1.00 hr, mean): 19.7 µg/mL
Plasma Conc (0.800 mg/kg, 3.00 hr, individual subject): 20.0 µg/mL and 14.4 µg/mL and 17.6 µg/mL
Plasma Conc (0.800 mg/kg, 3.00 hr, mean): 17.3 µg/mL
Plasma Conc (0.800 mg/kg, 8.00 hr, individual subject): 16.7 µg/mL and 15.1 µg/mL and 16.6 µg/mL
Plasma Conc (0.800 mg/kg, 8.00 hr, mean): 16.1 µg/mL
Plasma Conc (0.800 mg/kg, 24.0 hr, individual subject): 16.0 μg/mL and 13.7 μg/mL (2×)
Plasma Conc (0.800 mg/kg, 24.0 hr, mean): 14.5 µg/mL
Plasma Conc (0.800 mg/kg, 48.0 hr, individual subject): 12.4 μg/mL and BQL (BQL (<10 μg/mL), set = 0 for PK analysis) and 10.8 μg/mL
Plasma Conc (0.800 mg/kg, 48.0 hr, mean): 7.73 µg/mL
Plasma Conc (0.800 mg/kg, 72.0 hr, individual subject): BQL (BQL (<10 μg/mL), set = 0 for PK analysis) (2×) and 10.3 μg/mL
Plasma Conc (0.800 mg/kg, 72.0 hr, mean): 3.43 µg/mL
Plasma Conc (0.800 mg/kg, 240 hr, individual subject): BQL (BQL (<10 μg/mL), set = 0 for PK analysis)
Plasma Conc (0.800 mg/kg, 240 hr, mean): 0.00 µg/mL
Mean AUC0-24h (1.2 mg/kg): 495 µg·h/mL
Mean C10 (1.2 mg/kg): 31.7 µg/mL
Mean terminal-phase half-life (1.2 mg/kg): 36.5 h
AUC0-24 hr [3]: 348 µg·h/mL and 563 µg·h/mL and 574 µg·h/mL
AUCall [3]: 348 µg·h/mL and 1160 µg·h/mL and 1020 µg·h/mL
AUClast [3]: 184 µg·h/mL and 970 µg·h/mL and 891 µg·h/mL
C10 m [3]: 28.0 µg/mL and 34.1 µg/mL and 33.0 µg/mL
Cmax [3]: 28000 ng/mL and 34100 ng/mL and 33000 ng/mL
T1/2 [3]: 32.5 h and 46.5 h and 30.6 h
Tmax [3]: 0.170 h
